Values of other authors, collected in publication PMC3393814.

Target: Nrf2 14mer peptide (Homo sapiens)
Assay: ITC

Kd: 20 nM
Substance: Keap1 (from UniProt Q14145)
